Article PMC5691035 (Nature Communications, 2017)

Key:
[1] = target: Pfs25, monomeric, produced in Nicotiana benthamiana (Plasmodium falciparum (NF54; identical …, UniProt P13829); test: BLI; conditions: both partners purified
[2] = target: Pfs25, monomeric, Nicotiana benthamiana-produced (Plasmodium falciparum (NF54; identical …, UniProt P13829); test: BLI; conditions: both partners purified
Sequence of Pfs25, monomeric, Nicotiana benthamiana-produced (Plasmodium falciparum (P13829 17-196): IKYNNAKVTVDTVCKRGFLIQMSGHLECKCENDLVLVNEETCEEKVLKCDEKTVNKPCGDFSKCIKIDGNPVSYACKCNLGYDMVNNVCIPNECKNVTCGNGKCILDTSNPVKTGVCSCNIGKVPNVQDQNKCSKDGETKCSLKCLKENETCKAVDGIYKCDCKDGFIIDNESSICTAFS

Sequence of Pfs25, monomeric, produced in Nicotiana benthamiana (Plasmodium falciparum (P13829 22-193): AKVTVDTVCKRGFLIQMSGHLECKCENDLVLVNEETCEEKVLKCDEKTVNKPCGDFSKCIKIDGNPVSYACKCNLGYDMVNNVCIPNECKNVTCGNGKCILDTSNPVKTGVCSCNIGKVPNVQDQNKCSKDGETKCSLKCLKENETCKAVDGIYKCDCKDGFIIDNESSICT

B1: 1260 Fab (Fab, V domains shown)
VH: QVQLVQSGAEVKKPGASVKVSCRASGYIFTSYGFSWVRQAPGQGLEWMGWISAYNGNTDYSQKLQGRVTMTTDTSTNTVYMELRTLQSDDTAVYYCARDRGDRLYYYYYYGMDVWGQGTTVTVSS
VL: not shown
notes: source: HEK293F, transiently expressed, purified (KappaSelect or LambdaSelect, MonoS, Superdex 200)
Kd [1]: 41 nM | koff [1]: 0.00093 s⁻¹ | kon [1]: 23000 M⁻¹ s⁻¹

B2: 1260 Fab (Fab, V domains shown)
VH: QVQLVQSGAEVKKPGASVKVSCRASGYIFTSYGFSWVRQAPGQGLEWMGWISAYNGNTDYSQKLQGRVTMTTDTSTNTVYMELRTLQSDDTAVYYCARDRGDRLYYYYYYGMDVWGQGTTVTVSS
VL: not shown
notes: also called mAb 1260; source: HEK293F, transient, purified (KappaSelect or LambdaSelect, MonoS, SEC)
binding result [2]: binds

B3: 1190 Fab (Fab, V domains shown)
VH: not shown
VL: SYVLTQPPSVSVAPGQTARITCGGSNIGSKSVHWYQQKPGQTPMLVIYYDYDRPSGIPERFSGSNSGSTATLTISRVEAGDEADYYCQVWDSSSDHVWVFGGGTTLTVL
notes: source: HEK293F, transiently expressed, purified (LambdaSelect or KappaSelect, MonoS, Superdex 200)
koff [1]: 0.0021 s⁻¹ | kon [1]: 300000 M⁻¹ s⁻¹

B4: 1266 Fab (Fab, V domains shown)
VH: QVQLQQSGPGLVKPSQTLSLTCAISGDSVSSNSAAWNWIRQSPSRGLEWLGRTYYRSKWYNDYAVSVKSRITINADTSKNQFSLQLNSVTPEDTAVYYCVRDLLGSSGWYVFFDNWGQGTLVTVSS
VL: SYELTQPPSVSVSPGQSARITCSGDALPMKYAYWYQQKSGQAPVLVIYEDSKRPSGIPERFSGSSSGTMATLTISGAQVEDEADYYCFSTDSSGNHRVFGGGTKLT
notes: as for B3
Kd [1]: 31 nM | koff [1]: 0.012 s⁻¹ | kon [1]: 420000 M⁻¹ s⁻¹

B5: 1267 Fab (Fab, V domains shown)
VH: QVQLQQSGPGLVKPSQTLSLTCAISGDSVSSNSAAWNWIRQSPSRGLEWLGRTYYRSKWYNDYAVSVRGRITINPDTSKNHFSLQLNSVTPEDTAVYFCARDLMTNSGWYVYFDCWGQGTLVTVSS
VL: SYELTQPPSVSVSPGQSARITCSGDALPMKYAYWYQQKSGQAPVLVIYEDSKRPSGIPERFSGSSSGTMATLTISGAQVEDEADYYCFSTDSSGNHRVFGGGTKLT
notes: as for B3
Kd [1]: 7.9 nM | koff [1]: 0.0032 s⁻¹ | kon [1]: 430000 M⁻¹ s⁻¹

B6: 1266 Fab (Fab, V domains shown)
VH: QVQLQQSGPGLVKPSQTLSLTCAISGDSVSSNSAAWNWIRQSPSRGLEWLGRTYYRSKWYNDYAVSVKSRITINADTSKNQFSLQLNSVTPEDTAVYYCVRDLLGSSGWYVFFDNWGQGTLVTVSS
VL: SYELTQPPSVSVSPGQSARITCSGDALPMKYAYWYQQKSGQAPVLVIYEDSKRPSGIPERFSGSSSGTMATLTISGAQVEDEADYYCFSTDSSGNHRVFGGGTKLT
notes: also called mAb 1266; source: HEK293F, transient, purified (KappaSelect or LambdaSelect, MonoS, SEC)
binding result [2]: binds

B7: 1267 Fab (Fab, V domains shown)
VH: QVQLQQSGPGLVKPSQTLSLTCAISGDSVSSNSAAWNWIRQSPSRGLEWLGRTYYRSKWYNDYAVSVRGRITINPDTSKNHFSLQLNSVTPEDTAVYFCARDLMTNSGWYVYFDCWGQGTLVTVSS
VL: SYELTQPPSVSVSPGQSARITCSGDALPMKYAYWYQQKSGQAPVLVIYEDSKRPSGIPERFSGSSSGTMATLTISGAQVEDEADYYCFSTDSSGNHRVFGGGTKLT
notes: also called mAb 1267; source: HEK293F, transient, purified (KappaSelect or LambdaSelect, MonoS, SEC)
binding result [2]: binds

B8: 1245 Fab (Fab, V domains shown)
VH: QVQLVQSGGEVKKPGASVKVSCKASGYTFTSYGISWVRQAPGQGLEWMGWISAYNGNRKYAQKVQGRVSMTIDTHTSTANMELRSLRSDDTAVYYCAKDRGDGDYRYYYYGMDVWGQGTTVTVSS
VL: not shown
notes: as for B1
koff [1]: 0.00038 s⁻¹ | kon [1]: 22000 M⁻¹ s⁻¹

B9: 1245 IgG (antibody, V domains shown)
VH: QVQLVQSGGEVKKPGASVKVSCKASGYTFTSYGISWVRQAPGQGLEWMGWISAYNGNRKYAQKVQGRVSMTIDTHTSTANMELRSLRSDDTAVYYCAKDRGDGDYRYYYYGMDVWGQGTTVTVSS
VL: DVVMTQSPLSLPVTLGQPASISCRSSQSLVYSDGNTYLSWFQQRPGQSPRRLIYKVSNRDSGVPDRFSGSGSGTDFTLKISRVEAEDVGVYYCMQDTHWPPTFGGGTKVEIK
notes: IgG1; also called mAb 1245; source: HEK293, transient, purified from conditioned medium (Protein A); synthesized by LakePharma
Kd [2]: < 0.001 nM

B10: 1245 Fab (Fab, V domains shown)
VH: QVQLVQSGGEVKKPGASVKVSCKASGYTFTSYGISWVRQAPGQGLEWMGWISAYNGNRKYAQKVQGRVSMTIDTHTSTANMELRSLRSDDTAVYYCAKDRGDGDYRYYYYGMDVWGQGTTVTVSS
VL: not shown
notes: also called mAb 1245; source: HEK293F, transient, purified (KappaSelect or LambdaSelect, MonoS, SEC)
Kd [2]: 31 nM

B11: 1202 Fab (Fab, V domains shown)
VH: QVQLVESGGDLVKPGGSLRLSCAASGFTFSDHYMNWIRQAPGKGLEWVSYISSSGSTIYYSDSVKGRFTISRDNAKYLLSLQMNSLRAEDTAVYFCARDPMVRGFHDAFDIWGQGTMVTVSS
VL: SYELTQPPSVSVSPGQTASITCSGDKLGDKYASWYQQKPGQSPVLVIFQDNKRPSGIPERFSGSNSGNTATLTISETQAMDEADYYCQAWDISTAVFGTGTNVT
notes: as for B3
Kd [1]: 35 nM | koff [1]: 0.016 s⁻¹ | kon [1]: 480000 M⁻¹ s⁻¹

B12: 1202 Fab (Fab, V domains shown)
VH: QVQLVESGGDLVKPGGSLRLSCAASGFTFSDHYMNWIRQAPGKGLEWVSYISSSGSTIYYSDSVKGRFTISRDNAKYLLSLQMNSLRAEDTAVYFCARDPMVRGFHDAFDIWGQGTMVTVSS
VL: SYELTQPPSVSVSPGQTASITCSGDKLGDKYASWYQQKPGQSPVLVIFQDNKRPSGIPERFSGSNSGNTATLTISETQAMDEADYYCQAWDISTAVFGTGTNVT
notes: also called mAb 1202; source: HEK293F, transient, purified (KappaSelect or LambdaSelect, MonoS, SEC)
binding result [2]: binds

B13: 1262 Fab (Fab, V domains shown)
VH: QVQLQESGPGLVKPSGTLSLTCAVSGGSISSSHWWSWVRQPPGKGLEWVGEISLSGSTHYGPSLKSRVSISLDKSMNHFSLRLSSVTAADTAVYYCARESRFYGAYFDYWGQGTLVTVSS
VL: DIQLTQSPSFLSASVGDRVTITCWASQGINSYLAWYQQKPGKTPKLLIYAASTLQSGVPSRFSGSGSGTEFTLTISSLQPEDFATYYCQQLNSYPCSFGQGTTLEIK
notes: as for B1
Kd [1]: 12 nM | koff [1]: 0.0011 s⁻¹ | kon [1]: 80000 M⁻¹ s⁻¹

B14: 1268 Fab (Fab, V domains shown)
VH: EVQLVESGGGLVKPGGSLRLSCAASGFTFSRYSMNWVRQAPGKGLEWVSSISSRSSYKYYVDSVKGRFTISRDNAKNSLYLQMNSLRAEDTAVYYCARDDYGSGSYYYNWLDPWGQGTLVTVSS
VL: DIQLTQSPSFLSASVGDRVTITCWASQGISSFLAWYQQKPGKAPKLLIYAASTLESGVPSRFSGSGSGTEFTLTISSLQPEDFATYYCQQLNSYPRTFGQGTKVEIK
notes: also called mAb 1268; source: HEK293F, transient, purified (KappaSelect or LambdaSelect, MonoS, SEC)
binding result [2]: binds

B15: 1268 Fab (Fab, V domains shown)
VH: EVQLVESGGGLVKPGGSLRLSCAASGFTFSRYSMNWVRQAPGKGLEWVSSISSRSSYKYYVDSVKGRFTISRDNAKNSLYLQMNSLRAEDTAVYYCARDDYGSGSYYYNWLDPWGQGTLVTVSS
VL: DIQLTQSPSFLSASVGDRVTITCWASQGISSFLAWYQQKPGKAPKLLIYAASTLESGVPSRFSGSGSGTEFTLTISSLQPEDFATYYCQQLNSYPRTFGQGTKVEIK
notes: as for B1
Kd [1]: 67 nM | koff [1]: 0.006 s⁻¹ | kon [1]: 93000 M⁻¹ s⁻¹

B16: 1262 Fab (Fab, V domains shown)
VH: QVQLQESGPGLVKPSGTLSLTCAVSGGSISSSHWWSWVRQPPGKGLEWVGEISLSGSTHYGPSLKSRVSISLDKSMNHFSLRLSSVTAADTAVYYCARESRFYGAYFDYWGQGTLVTVSS
VL: DIQLTQSPSFLSASVGDRVTITCWASQGINSYLAWYQQKPGKTPKLLIYAASTLQSGVPSRFSGSGSGTEFTLTISSLQPEDFATYYCQQLNSYPCSFGQGTTLEIK
notes: also called mAb 1262; source: HEK293F, transient, purified (KappaSelect or LambdaSelect, MonoS, SEC)
binding result [2]: binds

B17: 1276 Fab (Fab, V domains shown)
VH: not shown
VL: SYVLTQPPSVSVAPGKTAKITCGGNNIGSKSVHWYQQKPGQAPVLVMYYDFDRPSGIPERFSGSNSGNTATLTISRVEAEDEADYYCQVWDSDRYWVFGGGTKLTVL
notes: as for B3
koff [1]: 0.0037 s⁻¹ | kon [1]: 210000 M⁻¹ s⁻¹

B18: 1269 Fab (Fab, V domains shown)
VH: EVQLVESGGGLVQSGGSLRLSCAASGFTFSRNAMNWVRQAPGKGLEWVSTISGSGDSTYYADSVKGRFTISRDNSKNTLYLQVNSLRAEDTAVYYCAKGDYYFDSGSYSFGMDVWGQGTTVTVSS
VL: EIVLTQSPGTLSLSPGERATLSCRTSQSVSSSYLAWYQQKPGQAPRLLMYGASSRATGIPDRFSGSGSGTDFTLTISRLEPEDFAVYYCQQYGNSFGQGTRLEIK
notes: as for B1
koff [1]: 0.00084 s⁻¹ | kon [1]: 220000 M⁻¹ s⁻¹

B19: 1269 IgG (antibody, V domains shown)
VH: EVQLVESGGGLVQSGGSLRLSCAASGFTFSRNAMNWVRQAPGKGLEWVSTISGSGDSTYYADSVKGRFTISRDNSKNTLYLQVNSLRAEDTAVYYCAKGDYYFDSGSYSFGMDVWGQGTTVTVSS
VL: EIVLTQSPGTLSLSPGERATLSCRTSQSVSSSYLAWYQQKPGQAPRLLMYGASSRATGIPDRFSGSGSGTDFTLTISRLEPEDFAVYYCQQYGNSFGQGTRLEIK
notes: IgG1; also called mAb 1269; source: HEK293, transient, purified from conditioned medium (Protein A); synthesized by LakePharma
Kd [2]: < 0.001 nM

B20: 1269 Fab (Fab, V domains shown)
VH: EVQLVESGGGLVQSGGSLRLSCAASGFTFSRNAMNWVRQAPGKGLEWVSTISGSGDSTYYADSVKGRFTISRDNSKNTLYLQVNSLRAEDTAVYYCAKGDYYFDSGSYSFGMDVWGQGTTVTVSS
VL: EIVLTQSPGTLSLSPGERATLSCRTSQSVSSSYLAWYQQKPGQAPRLLMYGASSRATGIPDRFSGSGSGTDFTLTISRLEPEDFAVYYCQQYGNSFGQGTRLEIK
notes: also called mAb 1269; source: HEK293F, transient, purified (KappaSelect or LambdaSelect, MonoS, SEC)
Kd [2]: 3.7 nM
